This data set in a line: yeast display, Sf9 membrane polyspecificity reagent, FACS + sequencing; frameworks hold sequencing errors. The method, boiled down:
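Synthetic nanobody libraries on Saccharomyces cerevisiae BJ5465 were galactose-induced for 36–48 hours, stained 1 hour at 4 °C with 10% biotinylated, detergent-solubilized Sf9 membrane reagent and enriched on streptavidin microbeads. FACS then separated cells into low and high (top ~1%) gates by anti-HA (expression) and streptavidin (reagent binding) fluorescence. Genes were colony-PCR amplified, MiSeq 2 × 250 sequenced and CDR-length filtered. A clone's polyreactivity label is that of its gate of origin.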
On to “QVQLVESGGGLVQEGGSLRLSCAASGITFAFYTMGRYRQAPGKERELVAAISYSGGRTYYADSVKGRFTISRDNAMNTVYLQMNSLKAEDTAVYYCAVETWWDYDYWGQGTQVTVSS”, for which the “polyreactivity (PSR sort gate)” value was “high polyreactivity”.
For the sequence “QVQLVESGGGLVQEGGSLRLSCAASGITFSVYTMGRYRQAPGKERELVASITRTGGSTYYADSVKGRFTISRDNAKNTVYLQMNSLNPEDTAVYYCAARRTVVTGRYYWGQGTQVTVSS”, the “polyreactivity (PSR sort gate)” value is recorded as “high polyreactivity”.
With “QVQLVESGGGLVQEGGSLRLSCAASGLIFGRYAMGWYRQAPGKERELVAAISSSGVRTYYADSVKGRFTISRDNAKNTVYLQMNSLKPEDTAVYYCAAAYWSSRDDTVIKRYYWGQGTQVTVSS”, the “polyreactivity (PSR sort gate)” value is given as “high polyreactivity”.
Turning to “QVQLVESGGGLVQEGGSLRLSCAASGLTFLNNAMGWYRPAPGKERELVAAISDGGSTNYADSVKGRFTISRDNAKNTVYLQMNSMKRDDTAVYYCAAVYTSASYGSWGQGTQVTVSS”, the “polyreactivity (PSR sort gate)” value is listed as “low polyreactivity”.
With “QVQLVESGGGLVQEGGSLRLSCAASGNTFKYYSMGWYRQAPGKERELVAAITWNGARTYYADSVKGRFTISRDNAKNTVYLQMNSLKPEDTAVYYCNARQGYRFDYWGQGTQVTVSS”, the “polyreactivity (PSR sort gate)” value was “high polyreactivity”.
For “QVQLVESGGGLVQEGGSLRLSCAASGRIFGVNAMGWYRQAPGKERELVAAIFSGGSTYYADSVKGRFTISRDNAKNTVYLQMNSLKPEDTAVYYCAARFARYDWSMYYWGQGTQVTVSS”, the “polyreactivity (PSR sort gate)” value is listed as “low polyreactivity”.
Regarding “QVQLVESGGGLVQEGGSLRLSCAASGRNFDVYAMGWYRQAPGKERELVAAITWDGGSTYYADSVKGRFTISRDNAKNSVYLQMNSEKPEDKAVYYCAAEPVYTQRKGYDYWGQGTQVTVSS”, the “polyreactivity (PSR sort gate)” value was “low polyreactivity”.
The result for “QVQLVESGGGLVQEGGSLRLSCAASGRTFWYYGMGWYRQAHGKERELVAAISRSGGRTSYADSVKGRFTISRDNAKNTVYLQMIRLKPEDTAVYYCATDGYYRYGYWGQGTQVTVSS” reads “high polyreactivity”; that for “QVQLVESGGGLVQEGGSLRLSCAASGRTICLNDMGWYRQAPGKERELVAGITRSGGSTYYADSVKGRFTISRDNAKNTVYLQMNSLKPEDSAVYYCAADFKPLYYDEYDYWGQGTQVTVSS”, “low polyreactivity”.
The result for “QVQLVESGGGLVQEGGSLRLSCAASGSIFFYYAMGWYRPAPGKERELVAAIRSGTSTNYADSVKGRFTISLDNAKNTVYLQMNSLKPEDTAVYYCNKDTDWSWSAITSPIFDYWGQGTQVTVSS” reads “low polyreactivity”.
In the case of “QVQLVESGGGLVQEGGSLRLSCAASGSIFGRNAMGWYRQAPGKERELVAAITSRTGSTFYADSVKGRFTISRDNAKNTDYLQMNSLKPEATAVYYCKAAGPAFSYYHWLWGDYNSWGQGTQVTVSS”, the “polyreactivity (PSR sort gate)” value is “low polyreactivity”.
On to “QVQLVESGGGLVQEGGSLRLSCAASGSIFGWYAMGWYRQAPGKEWELVAAIRRGGSTNYADSVKGRFTISRDNAKNTVYLQMNSLKAEVTAVYYCAAGKSGYSKRIFRYSFDYWGQGTQVTVSS”, for which the “polyreactivity (PSR sort gate)” value is “high polyreactivity”.
As for “QVQLVESGGGLVQEGGSLRLSCAASGSIFVNNGMGWYRQAPGKERELVAAIRLSTGSTYYADSVKGRFTISRDNAKNTVYLQMNSLKPEDTAVYFCNAVRYPRLMYYWGQGTQVTVSS”, the “polyreactivity (PSR sort gate)” value was “high polyreactivity”.
For “QVQLVESGGGLVQEGGSLRLSCAASGSSFCSYAMGRYRQAPGKERELVAAISSSGDSTYADSVKGRFTMSRDNAKNTVYLQMNSLKPEDTAVYYCAVGGAGSDDYWGQGTQVTVSS” the value was “low polyreactivity”; for “QVQLVESGGGLVQEGGSLRLSCAASGSTFNAYAMGWYRQAPGKERELVATINDDGGTTYYADSVKGRFTISRDNAKNTVYLQMNSLKPEDTAVYYCAASGFDTSYETAPSDSWGYDYWGQGTQVTVSS”, “low polyreactivity”.
Consider “QVQLVESGGGLVQEGGSLRLSCAASGSTFRYYAMGWYRQAPGKERELVASISSSGGNTYGDAVKGRFTISRDNAKNTVYLQMNSLKPEDTAVYYCNADWALLYSPPYTYRYGYWGQGTQVTVSS”, for which the “polyreactivity (PSR sort gate)” value was “low polyreactivity”.
With “QVQLVESGGGLVQEGGSLRLSCAASGSTFSIYAMGWYRQAPGKERELVAGISGSGGSTYYADSVKGRFTISRDNAKNTVYLQMNSLKPEDTAVYYCAKRVLWGLDYCGQGTQVTVSS”, the “polyreactivity (PSR sort gate)” value is listed as “low polyreactivity”.
On to “QVQLVESGGGLVQEGGSLRLSCAASGYTFGRYFMGWYRQAPGKEREFVAAISRGGGSTYYADSVKGRFTISRDNAKNTVYLQMNSLKPEDTAVYYCDTRSSNAEYWGQGTQVTVSS”, for which the “polyreactivity (PSR sort gate)” value is “high polyreactivity”.
For “QVQLVESGGGLVQEGGSLRLSCASSGGIFDTNAKGWYRQARGKDREFVAAITGSGGSTYYADSVKGRFTISRDNAKNTVYLQMNSLIPEDTAVYYCAAPLSYYWVYIVRDGYDYWGQGTQVTVSS”, the “polyreactivity (PSR sort gate)” value is reported as “low polyreactivity”.
Turning to “QVQLVESGGGLVQEGGSLRLSCSASGSIFYVYAMGRYRPARGKDRELVAAISSIDGNTYYADSVKGRFTISRDNAKNTVYLQMNSLKPEETAVYYCAAAYYNTDYYYWGKGTQVTVSS”, the “polyreactivity (PSR sort gate)” value was “low polyreactivity”.
Take “QVQLVESGGGLVQEGGSLRLTCAASGSTFIGNAMGGYRQAPGKERELVAAITSSGGSTYYADSVKGRFTISRDNAKNTVYLQMNSLKPEDTALYYCAAKTWARGHYGYQARSNYWGQGTQVTVSS”: the “polyreactivity (PSR sort gate)” value is “high polyreactivity”.
The result for “QVQLVESGGGLVQERGSLRLSCADSGFIFWYYAMGWDRQAPGKERELVAAISWSGDSTYYADSVKGRFTISRDNANNTVYLQMKSLKPEYTAVYYCAVYEELDVFYNGYDYWGQGTQVTVSS” reads “high polyreactivity”; that for “QVQLVESGGGLVQGGGSLRLSCAASGGTIGRNAMGWYRQAPGKERELVANITRRGGSTYYADSVKGRFTISRDNAKNTVYLQMNSLKAEDTAVYYCAARDVYRGGLFDYWGQGTQVSVSS”, “high polyreactivity”.
Regarding “QVQLVESGGGLVQGGGSLRLSCAASGITFCQYAMRWYRQAPGKERELVAGIRFSGSTTYYADSVKGRFTISRDYAKITVYLQMNSLKPEDTAVYDCNVDYYSGLYYYDSWGQGTQVTVSS”, the “polyreactivity (PSR sort gate)” value is “low polyreactivity”.
Turning to “QVQLVESGGGLVQGGGSLRLSCAASGRIFKYYAMGWYRQAPGKERELVADISWRGGSTYYADSVKGRFTISRDNAKNTVYLQMNCLKPEDTAVYYCNAVSPRPGFDWGQGTQVTVSS”, the “polyreactivity (PSR sort gate)” value is recorded as “high polyreactivity”.
Consider “QVQLVESGGGLVQGGGSLRLSCAASGRIFTFYAMGWSRPAPGKARELVASITGGGNTYYADSVKGRFTISRDNAKNTVNLQMNSLKPEDTAVYYCAADDGYRELDYWGQGTQVTVSS”, for which the “polyreactivity (PSR sort gate)” value is recorded as “low polyreactivity”.
Consider “QVQLVESGGGLVQGGGSLRLSCAASGRIGKYAMGWYRQAPGKERELVATISSTGTTNYADSVKGRFTISRDNAKNTVYLQMNSLKPEDTAVYYCAARWEYVGYRRRYYRFDYWGQGTQVTVSS”, for which the “polyreactivity (PSR sort gate)” value is on record as “high polyreactivity”.
Regarding “QVQLVESGGGLVQGGGSLRLSCAASGRTLSYYAKGWYRQAPGKERELVADISWSGGSTYYADSVKGRFTISRDNAKNTVYLQMNSLKPEDTAVYYCAARVPGSIRSVGSVKQKYYYWGQGTQVTVSS”, the “polyreactivity (PSR sort gate)” value is “high polyreactivity”.
As for “QVQLVESGGGLVQPGGSLLLSCAASRITFDHYAMAWYRRAPGKERELVAAITSGGNTNYADSVKGRFTISRDNAKNPVYLQMNSLKPEDTAVYYCNAGYDVCYYYWGKGTQVTVSS”, the “polyreactivity (PSR sort gate)” value is “low polyreactivity”.
For the sequence “QVQLVESGGGLVQPGGSLRLLFAASGSNFVYNEMGWYRQAPGKERELVAGIDWSGDRTYADSVKRRFTNSRDNAKNTVYLQMNSLKQEDTAVKYCNADEWLWDEIIPFAVDYWGQGTQVTVSS”, the “polyreactivity (PSR sort gate)” value was “low polyreactivity”.

For the origin of these results see the nanobody polyreactivity screen of Harvey et al. (2022).
